1 molecule from patent US20160090637A1 (published 2016) can be followed below.

In this assay the target is T1, IL-10R1 S138G homozygous mutant on primary B-CLL cells (human, UniProt Q13651 22-578).
T1 construct: Endogenous receptor on purified B-CLL cells of patients homozygous (GG) for the mutation; also called S159G of the IL-10R1 precursor; GG homozygous mutant
T1 sequence: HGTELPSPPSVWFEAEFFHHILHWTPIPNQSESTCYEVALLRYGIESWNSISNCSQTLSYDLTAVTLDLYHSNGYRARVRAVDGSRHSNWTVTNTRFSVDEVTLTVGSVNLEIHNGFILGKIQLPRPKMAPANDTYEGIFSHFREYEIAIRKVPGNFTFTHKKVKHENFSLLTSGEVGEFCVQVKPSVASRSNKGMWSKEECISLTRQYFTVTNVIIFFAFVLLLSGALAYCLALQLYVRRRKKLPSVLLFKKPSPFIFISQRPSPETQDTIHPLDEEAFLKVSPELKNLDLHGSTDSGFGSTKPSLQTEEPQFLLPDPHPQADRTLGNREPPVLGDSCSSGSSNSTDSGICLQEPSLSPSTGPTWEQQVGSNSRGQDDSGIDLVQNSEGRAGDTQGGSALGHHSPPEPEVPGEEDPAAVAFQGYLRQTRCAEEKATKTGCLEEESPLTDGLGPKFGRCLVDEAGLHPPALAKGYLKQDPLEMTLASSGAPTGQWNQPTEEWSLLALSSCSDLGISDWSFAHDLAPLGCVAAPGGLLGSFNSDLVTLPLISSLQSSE
Nature of the assay: flow cytometry, biotinylated IL-10 plus avidin-FITC on primary B-CLL cells; weaker than on wild-type cells. The method, then:
IL-10 binding with B-CLL cells was determined using Flurokine® Biotinylated Human Interleukin 10 Kit (R&D Systems) per the protocol. 25 μl (1×10⁵) purified B-CLL cells were incubated with 10 μl biotinylated negative control reagents or biotinylated IL-10 for 1-hour at 2-8° C., then incubated with 10 μl of avidin-FITC for a further 30 minutes at 2-8° C. in the dark. Wash the cells twice with 2 ml of 1×RDF buffer 2 times. Add 200 μl 1×RDF buffer into each tube and do flow cytometry analysis.

B1: Biotinylated Human Interleukin 10 (Flurokine kit, R&D Systems) (ligand, UniProt P22301 19-178, looked up)
chain: SPGQGTQSENSCTHFPGNLPNMLRDLRDAFSRVKTFFQMKDQLDNLLLKESLLEDFKGYLGCQALSEMIQFYLEEVMPQAENQDPDIKAHVNSLGENLKTLRLRLRRCHRFLPCENKSKAVEQVKNAFNKLQEKGIYKAMSEFDIFINYIEAYMTMKIRN
modifications: biotinylated (sites not given) in the binding assay; unlabelled rh-IL-10 in the culture assays
notes: The STAT assays used rh-IL-10 (R&D Systems) at 10 ng/ml; also called IL-10; rh-IL-10
Regarding B1, the binding result is listed as “binds”.
